Laboratory results from paper PMC12318175.
Like-named read-outs stand apart in the source and are kept apart here.

What was measured:
GST-OGG1 [1] = target: T1, GST-OGG1 (mouse, UniProt O08760 1-345); assay: EMSA
GST-OGG1 [2] = target: T1, GST-OGG1; assay: EMSA; remark: listed apart in the source

T1 sequence (O08760 whole entry): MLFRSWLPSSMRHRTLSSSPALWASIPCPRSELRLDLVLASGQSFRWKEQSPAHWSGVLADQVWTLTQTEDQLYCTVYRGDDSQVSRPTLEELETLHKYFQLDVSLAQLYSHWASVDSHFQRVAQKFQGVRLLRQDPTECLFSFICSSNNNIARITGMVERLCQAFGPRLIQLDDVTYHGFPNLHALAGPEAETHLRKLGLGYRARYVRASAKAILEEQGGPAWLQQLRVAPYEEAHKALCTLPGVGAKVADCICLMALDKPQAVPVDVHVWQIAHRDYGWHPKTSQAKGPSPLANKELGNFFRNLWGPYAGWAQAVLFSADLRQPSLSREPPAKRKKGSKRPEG

B1: Cy5-5mC8-oxoG/GC (Foxp3 CNS2) (dsDNA)
DNA 1: GCCGATGAAGCCCAATGCATCCGGCCGCCATGACGTCA
DNA 2: TGACGTCATGGCGGCCGGATGCATTGGGCTTCATCGGC
modifications: 5mC at sense C22; 8-oxoG at sense G23
binding result (GST-OGG1 [1]): binds

B2: Cy5-WT (Foxp3 pro) (dsDNA)
DNA 1: AAGTGTGGGTATGGGAGCCAGACTGTCTGGAACAACCTA
DNA 2: TAGGTTGTTCCAGACAGTCTCGCTCCCATACCCACACTT
binding result (GST-OGG1 [2]): no binding
